Laboratory results: patent US20260193316A1

Experiments:
Assay in all cases: cell-based or functional assay
[1] = target: CD20WT (wild type amino acidic sequence of human CD20) (human) (UniProt P11836)
C1C252 (human) = C1C252 (human) (UniProt P11836)
C1C3 (human) = C1C3 (human) (UniProt P11836)

reduction in the hCD20+ cell population in mice (GFP+ T cells in blood) [1]: 65%
reduction in the hCD20+ cell population in mice (GFP+ T cells in blood) (C1C252 (human)): 65%
reduction in the hCD20+ cell population in mice (GFP+ T cells in blood) (C1C3 (human)): 65%
Substance: 2H7 mouse anti-human CD20 antibody
